Results taken from US20230357447A1 (JANUX THERAPEUTICS, published 2023).

B1: Phage-389 (peptide)
peptide: MDWCPSDMWANCFF
B2: Phage-236 clonal phage peptide (peptide)
peptide: MDWCPRDLWNLCFF
notes: on phage (pIII fusion)
B3: Phage-416 (peptide)
peptide: MDWCPSNMWNECFF
B4: Phage-209 (peptide)
peptide: IDWCPQDMWFYCFN
B5: Phage-297 clonal phage peptide (peptide)
peptide: MDWCPRHLWTECFS
notes: on phage (pIII fusion)
B6: Phage-358 (peptide)
peptide: MDWCPPHLWHECFF
B7: Phage-341 (peptide)
peptide: MDWCPRHLWDECFN
B8: Phage-322 (peptide)
peptide: MDWCPRHLWIECFN
B9: Phage-331 (peptide)
peptide: MDWCPRHLWDECFY
B10: Phage-208 (peptide)
peptide: MDWCPTDMWIVCFA
B11: Phage-289 clonal phage peptide (peptide)
peptide: MDWCPRYLWNVCFA
notes: on phage (pIII fusion)
B12: Phage-298 clonal phage peptide (peptide)
peptide: MDWCPLYLWAECFN
notes: on phage (pIII fusion)
B13: Phage-392 (peptide)
peptide: LHWCPTSMWTYCYY
B14: Phage-214 (peptide)
peptide: MDWCPTYMWSECFN
B15: Phage-213 (peptide)
peptide: MNWCPSYMWDQCFA
B16: Phage-419 (peptide)
peptide: VDWCPAHMWNECYN
B17: Phage-207 (peptide)
peptide: MDWCPRAMWHECFY
B18: Phage-212 (peptide)
peptide: MDWCPRAMWDKCFF
B19: Phage-210 (peptide)
peptide: MDWCPRDMWFECFA
B20: Phage-390 (peptide)
peptide: IDWCPMHMWDFCYN
B21: Phage-215 (peptide)
peptide: MDWCPRYMWNECFN
B22: Phage-216 (peptide)
peptide: MDWCPMNMWYQCFN
B23: Phage-278 clonal phage peptide (peptide)
peptide: MDWCPRSIWYLCFN
notes: on phage (pIII fusion)
B24: Phage-265 clonal phage peptide (peptide)
peptide: MDWCPRFMWDLCFA
notes: on phage (pIII fusion)

Key:
[1] = molecular target: T1, Anti-CD28 scFv (VH-linker 1-VL) (biotinylated (site not stated)); experiment: phage binding ELISA on captured anti-CD28 scFv, wells pre-incubated with soluble CD28 (competitor);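 note: crude clonal phage supernatants added without washing, bound phage detected by HRP-conjugated anti-M13 antibody, control wells held blocking buffer alone instead of CD28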
T1 construct: biotinylated and captured on neutravidin coated plates in the phage ELISA
T1 sequence (scFv, as listed by the source): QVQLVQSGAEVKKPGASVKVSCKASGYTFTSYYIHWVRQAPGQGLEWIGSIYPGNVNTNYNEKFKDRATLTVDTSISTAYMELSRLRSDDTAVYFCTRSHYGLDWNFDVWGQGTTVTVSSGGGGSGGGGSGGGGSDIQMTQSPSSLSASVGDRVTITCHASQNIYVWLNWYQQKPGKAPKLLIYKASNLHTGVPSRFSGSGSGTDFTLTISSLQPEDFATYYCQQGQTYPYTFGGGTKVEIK

[2] = molecular target: T2, anti-CD28 scFv (VH-linker 1-VL) (biotinylated (site not stated)); experiment: phage ELISA; scFv wells pre-incubated with soluble CD28 (competitor);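 note: crude clonal phage supernatants added to wells pretreated with soluble CD28 in blocking buffer, bound phage read via HRP-linked anti-M13 antibody, reference wells got blocking buffer only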
T2 construct: Captured as biotinylated scFv on neutravidin coated plates in the phage ELISA
T2 sequence (scFv, as listed by the source): as above

[3] = molecular target: T1, Anti-CD28 scFv (VH-linker 1-VL); experiment: phage binding ELISA on captured biotinylated anti-CD28 scFv;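 note: crude clonal phage supernatants applied to the wells, bound phage read out with an HRP-conjugated anti-M13 antibody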
Experimental: (§1) Clonal phage were harvested as crude supernatants and screened via standard enzyme linked immunosorbent assays (ELISAs). […] Prior to the addition of clonal phage, wells were incubated with blocking buffer and CD28 soluble protein or blocking buffer alone. Without washing or aspirating, clonal phage supernatants were then added to the wells and incubated for a short time. Wells were then washed followed by detection of bound phage using a horse radish peroxidase conjugated anti-M13 antibody.

[4] = molecular target: T3, Anti-CD28 scFv (VH-linker 1-VL) (biotinylated for capture on neutravidin plates); experiment: phage ELISA, scFv captured on plate;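 note: crude clonal phage supernatants added to wells preincubated with soluble CD28 or with blocking buffer only, bound phage read out by HRP-linked anti-M13 antibody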
T3 sequence (scFv, as listed by the source): as above
Experimental: as §1

[5] = molecular target: T3, Anti-CD28 scFv (VH-linker 1-VL); experiment: phage ELISA, scFv captured on plate, competitor soluble CD28;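 note: crude clonal phage supernatants added to wells pre-incubated with soluble CD28 or with blocking buffer only as control, bound phage read out with HRP-linked anti-M13 antibody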
Experimental: as §1

| Binder | Phage binding ELISA CD28 scFv signal [4] | Phage binding ELISA CD28 scFv signal in presence of CD28 [5] | other results |
| --- | --- | --- | --- |
| B1 |  |  | CD28 scFv signal in presence of CD28 [1]: 0.316 |
| B2 |  |  | CD28 scFv signal in presence of CD28 [2]: 0.436 |
| B3 |  |  | CD28 scFv signal [3]: 0.983 |
| B4 | 1.42 | 0.16 |  |
| B5 |  |  | CD28 scFv signal in presence of CD28 [2]: 0.243 |
| B6 |  |  | CD28 scFv signal [3]: 1.45 |
| B7 |  |  | CD28 scFv signal [3]: 1.98; CD28 scFv signal in presence of CD28 [1]: 0.268 |
| B8 |  |  | CD28 scFv signal [3]: 2.21; CD28 scFv signal in presence of CD28 [1]: 0.376 |
| B9 |  |  | CD28 scFv signal [3]: 2.13; CD28 scFv signal in presence of CD28 [1]: 0.146 |
| B10 | 1.5 | 0.172 |  |
| B11 |  |  | CD28 scFv signal in presence of CD28 [2]: 0.28 |
| B12 |  |  | CD28 scFv signal in presence of CD28 [2]: 0.193 |
| B13 |  |  | CD28 scFv signal in presence of CD28 [1]: 2.46 |
| B14 | 0.754 | 0.107 |  |
| B15 | 0.854 | 0.105 |  |
| B16 |  |  | CD28 scFv signal [3]: 0.664 |
| B17 | 1.92 | 0.129 |  |
| B18 | 0.985 | 0.094 |  |
| B19 | 1.31 | 0.143 |  |
| B20 |  |  | CD28 scFv signal in presence of CD28 [1]: 0.232 |
| B21 | 0.687 | 0.128 |  |
| B22 | 0.639 | 0.137 |  |
| B23 |  |  | CD28 scFv signal in presence of CD28 [2]: 1.34 |
| B24 |  |  | CD28 scFv signal in presence of CD28 [2]: 0.725 |
